In patent US20240409663A1 (CONCEPT TO MEDICINE BIOTECH, published 2024):

Tests used:
[1] = molecular target: T1, human GPC3 on cells (human, UniProt P51654 25-554); experiment: FACS, GPC3-CHOK1 cells
T1 construct: whole, on cells; over-expressed on CHOK1 cells or endogenous on HEPG2, Hep3B and Huh-7 hepatocellular carcinoma cells; the cell line is named under assay; also called GPC3-CHOK1 cells; human GPC3 over-expressed CHOK1 cells
Description: (§1) To evaluate the antigen binding property, the humanized antibodies were analyzed for their binding to human GPC3 over-expressed CHOK1 cells and Huh-7 cells by FACS. Briefly, GPC3-CHOK1 cells and Huh-7 cells were firstly incubated with Fc blocking reagent at 4° C. for 15 mins. Cells were washed by FACS buffer and divided to each well with 4-fold serially diluted humanized antibodies starting at 10 μg/mL at 4° C. for 60 mins. Cells were washed by FACS buffer and fixed with 2% PFA at RT for 15 mins. […] As different plates might affect the EC50 of 52H5D3B8-VH+VL, the 12 humanized antibodies were separated into two plates.

[2] = molecular target: T1, human GPC3 on cells; experiment: FACS, Huh-7 cells
Description: (§2) Cell-based binding: FACS was used to evaluate the binding activity of 52H5D3B8, 52H5D3B8-6 # chimeric mAbs and GC33 antibody on human GPC3 over-expressed CHOK1 cells, Hep3B cells and Huh-7 cells.
(§3) Briefly, GPC3-CHOK1 cells, Hep3B cells or Huh-7 cells were firstly incubated with Fc blocking reagent at 4° C. for 15 mins. Cells were washed by FACS buffer and divided to each well with 3-fold serially diluted 52H5D3B8, 52H5D3B8-6 # chimeric mAbs or GC33 antibody starting at 30 μg/mL at 4° C. for 60 mins. Cells were washed by FACS buffer and fixed with 2% PFA at RT for 15 mins. […] Samples were washed twice with FACS buffer.

[3] = molecular target: T1, human GPC3 on cells; experiment: FACS, Huh-7 cells; remark: listed apart in the source
Description: (§4) Cell-based binding: FACS was used to evaluate the binding activity of 52H5D3B8 chimeric mAbs with comparison to a known GPC3 antibody GC33 (Chugai Pharmaceutical) on human GPC3 over-expressed CHOK1 cells, HEPG2 cells, Hep3B cells and Huh-7 cells.
as §3, with “GPC3-CHOK1 cells, HEPG2” for “GPC3-CHOK1”, “52H5D3B8” for “52H5D3B8, 52H5D3B8-6 #”, “mAb” for “antibody”

[4] = molecular target: T1, human GPC3 on cells; experiment: FACS, Hep3B cells
Description: as §2, §3

[5] = molecular target: T1, human GPC3 on cells; experiment: FACS, GPC3-CHOK1 cells; remark: listed apart in the source
Description: as §2, §3

[6] = molecular target: T1, human GPC3 on cells; experiment: FACS, Hep3B cells; remark: listed apart in the source
Description: as §4
as §3, with “GPC3-CHOK1 cells, HEPG2” for “GPC3-CHOK1”, “52H5D3B8” for “52H5D3B8, 52H5D3B8-6 #”, “mAb” for “antibody”

[7] = molecular target: T1, human GPC3 on cells; experiment: FACS, Huh-7 cells; remark: listed apart in the source
Description: as §1

[8] = molecular target: T2, cynomolgus GPC3 protein (cynomolgus, UniProt A0A2K5VK50 24-553, The natural protein carries heparan sulfate chains and may be cleaved by furin between the alpha (24-357) and beta (358-553) subunits, which stay disulfide-linked. It is written here as one …); experiment: ELISA, coated cynomolgus GPC3
T2 construct: protein coated on plates in the cross species ELISA
Description: (§5) ELISA testing was carried out to evaluate the binding of chimeric antibodies to human, mouse and cynomolgus GPC3, respectively.
(§6) Briefly, microtiter plates were coated with human, mouse and cynomolgus GPC3 proteins at 1 μg/ml in PBS, 100 μl/well at 4° C. overnight, then blocked with 150 μl/well of 1% BSA. Three-fold dilutions of chimeric antibodies starting from 9 μg/ml were added to each well and incubated for 1 hour at 37° C. The plates were washed with PBS/Tween and then incubate with mouse-anti-human IgG Fc antibody conjugated with Horse Radish Peroxidase (HRP) for 30 mins at 37° C. After washing, the plates were developed with TMB substrate and analyzed by spectrophotometer at OD 450 nm. The 52H5D3B8 antibody bound to human, cynomolgus GPC3 and mouse GPC3 (FIG. 3 and Table 4).

[9] = molecular target: T3, human GPC3-his tag protein (human, UniProt P51654 25-559, limits assumed); experiment: SPR Biacore 8K, mAb captured on CM5, GPC3-his dilution series
T3 construct: recombinant soluble antigen used as analyte in all Biacore runs; also called recombinant GPC3 protein; rhGPC3-His; not shown: His tag
Description: The binding of the chimeric 52H5D3B8 mAb to human GPC3-his was tested with Biacore using a capture method. The 52H5D3B8 mAb was captured using CM5 sensor chip. A serial dilution of human GPC3-his tag protein was injected over captured antibody for 2 mins at a flow rate of 30 μl/min. The antigen was allowed to dissociate for 360 s. All the experiments were carried out on a Biacore 8K. Data analysis was carried out using Biacore 8K evaluation software.

[10] = molecular target: T4, mouse GPC3 protein (mouse, UniProt Q8CFZ4 25-558, limits assumed); experiment: ELISA, coated mouse GPC3
T4 construct: protein coated on plates in the cross species ELISA
Description: as §5, §6

[11] = molecular target: T3, human GPC3-his tag protein; experiment: SPR Biacore 8K, mAb captured, affinity ranking
Description: To evaluate antigen binding activity, the chimeric antibody's affinity was measured by Biacore 8K. Two concentrations with most close affinity to the chimeric antibody's affinity were chosen for the 12 humanized antibodies' affinity detection. Human GPC3-his tag protein was injected over captured antibody for 3 mins at a flow rate of 30 μl/min. The antigen was allowed to dissociate for 720 s.

[12] = molecular target: T5, human GPC3 protein (ELISA coat) (human, UniProt P51654 25-559, limits assumed); experiment: ELISA, coated human GPC3
T5 construct: protein coated on plates in the cross species ELISA
Description: as §5, §6

[13] = molecular target: T1, human GPC3 on cells; experiment: FACS, HEPG2 cells
Description: as §4
as §3, with “GPC3-CHOK1 cells, HEPG2” for “GPC3-CHOK1”, “52H5D3B8” for “52H5D3B8, 52H5D3B8-6 #”, “mAb” for “antibody”

[14] = molecular target: T1, human GPC3 on cells; experiment: FACS, Huh-7 cells; remark: listed apart in the source
Description: as §1

[15] = molecular target: T1, human GPC3 on cells; experiment: FACS, GPC3-CHOK1 cells; remark: listed apart in the source
Description: as §4
as §3, with “GPC3-CHOK1 cells, HEPG2” for “GPC3-CHOK1”, “52H5D3B8” for “52H5D3B8, 52H5D3B8-6 #”, “mAb” for “antibody”

T4 sequence (Q8CFZ4 25-558 limits assumed): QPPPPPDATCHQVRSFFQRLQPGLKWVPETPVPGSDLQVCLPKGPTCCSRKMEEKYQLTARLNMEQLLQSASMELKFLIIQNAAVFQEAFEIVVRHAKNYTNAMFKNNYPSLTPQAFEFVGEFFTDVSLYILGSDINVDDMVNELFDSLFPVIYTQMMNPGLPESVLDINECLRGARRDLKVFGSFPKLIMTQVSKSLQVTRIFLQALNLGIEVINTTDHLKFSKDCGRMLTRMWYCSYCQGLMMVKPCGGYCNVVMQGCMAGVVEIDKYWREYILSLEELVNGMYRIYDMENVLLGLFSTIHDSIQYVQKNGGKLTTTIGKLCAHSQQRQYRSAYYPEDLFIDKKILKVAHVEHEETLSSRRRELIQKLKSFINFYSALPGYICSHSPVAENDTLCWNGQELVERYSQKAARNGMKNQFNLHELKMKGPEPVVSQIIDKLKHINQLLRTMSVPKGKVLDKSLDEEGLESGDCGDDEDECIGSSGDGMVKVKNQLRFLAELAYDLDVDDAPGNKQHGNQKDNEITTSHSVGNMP

B1: 52H5D3B8 chimeric mAb (antibody, V domains shown)
VH: QVQLQQSGAELVRPGASVKLSCKALGYTFTDYEMHWVKQTPVHGLEWIGAIHPGSGGTAYNQKFKGKATLTADKFSSTGYMELSSLTSEDSAVYYCTRFYSYAYWGQGTLVTVSA
VL: DVVMTQTPLSLPVSLGDQASISCRSSQSLVHSNGNTYLQWYLQKPGQSPKLLIYKVSNRFSGVPDRFSGSGSGTDFILKISRVEAEDLGVYFCSQSIHVPYTFGGGTKLEIK
notes: also called 52H5D3B8-VH+VL; chimeric 52H5D3B8 mAb
[1]
  EC50: 0.0479 µg/mL
[2]
  EC50: 0.0795 µg/mL
[3]
  EC50: 0.0986 µg/mL
[4]
  EC50: 0.217 µg/mL
[5]
  EC50: 0.07 µg/mL
[6]
  EC50: 0.192 µg/mL
[7]
  EC50: 0.0469 µg/mL
[8]
  EC50: 0.0152 µg/mL
[9]
  Kd: 0.843 nM
  koff: 0.000466 s⁻¹
  kon: 552000 M⁻¹ s⁻¹
[10]
  EC50: 4.95 µg/mL
[11]
  Kd: 1.41 nM
  koff: 0.00049 s⁻¹
  kon: 347000 M⁻¹ s⁻¹
[12]
  EC50: 0.017 µg/mL
[13]
  EC50: 0.111 µg/mL
[14]
  EC50: 0.0563 µg/mL
[15]
  EC50: 0.0922 µg/mL
